± gives the standard deviation of the averaged measurements.
Tests used:
[1] = test system: hTERT-HMEC; experiment: percentage of EdU-negative (G0-arrested) nuclei per well, 72 h; higher = more G0 arrest; settings: reference: sequence is the full UniProt precursor, the tested protein was the secreted form or ectodomain
[2] = test system: MCF7; experiment: as above; settings: reference: sequence is the full UniProt precursor, the tested protein was the secreted form or ectodomain
[3] = protein concentration 0.0131429 µM
[4] = protein concentration 0.131429 µM
[5] = protein concentration 0.0205 µM
[6] = protein concentration 0.02075 µM
[7] = protein concentration 0.2075 µM
[8] = protein concentration 0.0225 µM
[9] = protein concentration 0.0117143 µM
[10] = protein concentration 0.117143 µM
[11] = protein concentration 0.02085 µM
[12] = protein concentration 0.2085 µM
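Further: secreted proteins added to cultured cells, EdU pulse at the end, nuclei found by Hoechst imaging, EdU status from nuclear versus surrounding ring intensity ratio, PBS as neutral control.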

MAPPLRPLARLRPPGMLLRALLLLLLLSPLPGVWCFSELSFVKEPQDVTVTRKDPVVLDCQAHGEVPIKVTWLKNGAKMSENKRIEVLSNGSLYISEVEGRRGEQSDEGFYQCLAMNKYGAILSQKAHLALSTISAFEVQPISTEVHEGGVARFACKISSHPPAVITWEFNRTTLPMTMDRITALPTGVLQIYDVSQRDSGNYRCIAATVAHRRKSMEASLTVIPAKESKSFHTPTIIAGPQNITTSLHQTVVLECMATGNPKPIISWSRLDHKSIDVFNTRVLGNGNLMISDVRLQHAGVYVCRATTPGTRNFTVAMATLTVLAPPSFVEWPESLTRPRAGTARFVCQAEGIPSPKMSWLKNGRKIHSNGRIKMYNSKLVINQIIPEDDAIYQCMAENSQGSILSRARLTVVMSEDRPSAPYNVHAETMSSSAILLAWERPLYNSDKVIAYSVHYMKAEGLNNEEYQVVIGNDTTHYIIDDLEPASNYTFYIVAYMPMGASQMSDHVTQNTLEDVPLRPPEISLTSRSPTDILISWLPIPAKYRRGQVVLYRLSFRLSTENSIQVLELPGTTHEYLLEGLKPDSVYLVRITAATRVGLGESSVWTSHRTPKATSVKAPKSPELHLEPLNCTTISVRWQQDVEDTAAIQGYKLYYKEEGQQENGPIFLDTKDLLYTLSGLDPRRKYHVRLLAYNNIDDGYQADQTVSTPGCVSVRDRMVPPPPPPHHLYAKANTSSSIFLHWRRPAFTAAQIINYTIRCNPVGLQNASLVLYLQTSETHMLVQGLEPNTKYEFAVRLHVDQLSSPWSPVVYHSTLPEAPAGPPVGVKVTLIEDDTALVSWKPPDGPETVVTRYTILYASRKAWIAGEWQVLHREGAITMALLENLVAGNVYIVKISASNEVGEGPFSNSVELAVLPKETSESNQRPKRLDSADAKVYSGYYHLDQKSMTGIAVGVGIALTCILICVLILIYRSKARKSSASKTAQNGTQQLPRTSASLASGNEVGKNLEGAVGNEESLMPMIMPNSFIDAKGGTDLIINSYGPIIKNNSKKKWFFFQDSKKIQVEQPQRRFTPAVCFYQPGTTVLISDEDSPSSPGQTTSFSRPFGVAADTEHSANSEGSHETGDSGRFSHESNDEIHLSSVISTTPPNL [Q2VWP7]
percentage of EdU-negative [1, 3]: 4.73 ± 0.2% | percentage of EdU-negative [1, 4]: 5.16 ± 0.39% | percentage of EdU-negative [2, 3]: 25.8 ± 0.61% | percentage of EdU-negative [2, 4]: 25.2 ± 1.5%

MPGPRVWGKYLWRSPHSKGCPGAMWWLLLWGVLQACPTRGSVLLAQELPQQLTSPGYPEPYGKGQESSTDIKAPEGFAVRLVFQDFDLEPSQDCAGDSVTISFVGSDPSQFCGQQGSPLGRPPGQREFVSSGRSLRLTFRTQPSSENKTAHLHKGFLALYQTVAVNYSQPISEASRGSEAINAPGDNPAKVQNHCQEPYYQAAAAGALTCATPGTWKDRQDGEEVLQCMPVCGRPVTPIAQNQTTLGSSRAKLGNFPWQAFTSIHGRGGGALLGDRWILTAAHTIYPKDSVSLRKNQSVNVFLGHTAIDEMLKLGNHPVHRVVVHPDYRQNESHNFSGDIALLELQHSIPLGPNVLPVCLPDNETLYRSGLLGYVSGFGMEMGWLTTELKYSRLPVAPREACNAWLQKRQRPEVFSDNMFCVGDETQRHSVCQGDSGSVYVVWDNHAHHWVATGIVSWGIGCGEGYDFYTKVLSYVDWIKGVMNGKN [Q9NZP8]
percentage of EdU-negative [1, 5]: 6.35 ± 0.51% | percentage of EdU-negative ([1]; protein concentration 0.205 µM): 7.52 ± 1.6% | percentage of EdU-negative [2, 5]: 25.9 ± 0.29% | percentage of EdU-negative ([2]; protein concentration 0.205 µM): 26.4 ± 0.027%

MTSKPHSDWIPYSVLDDEGRNLRQQKLDRQRALLEQKQKKKRQEPLMVQANADGRPRSRRARQSEEQAPLVESYLSSSGSTSYQVQEADSLASVQLGATRPTAPASAKRTKAAATAGGQGGAARKEKKGKHKGTSGPAALAEDKSEAQGPVQILTVGQSDHAQDAGETAAGGGERPSGQDLRATMQRKGISSSMSFDEDEEDEEENSSSSSQLNSNTRPSSATSRKSVREAASAPSPTAPEQPVDVEVQDLEEFALRPAPQGITIKCRITRDKKGMDRGMYPTYFLHLDREDGKKVFLLAGRKRKKSKTSNYLISVDPTDLSRGGDSYIGKLRSNLMGTKFTVYDNGVNPQKASSSTLESGTLRQELAAVCYETNVLGFKGPRKMSVIVPGMNMVHERVSIRPRNEHETLLARWQNKNTESIIELQNKTPVWNDDTQSYVLNFHGRVTQASVKNFQIIHGNDPDYIVMQFGRVAEDVFTMDYNYPLCALQAFAIALSSFDSKLACE
percentage of EdU-negative [1, 6]: 4.99 ± 0.76% | percentage of EdU-negative [1, 7]: 7.63 ± 0.81% | percentage of EdU-negative [2, 6]: 24.8 ± 1.5% | percentage of EdU-negative [2, 7]: 29.6 ± 0.96%

MSEEVTYADLQFQNSSEMEKIPEIGKFGEKAPPAPSHVWRPAALFLTLLCLLLLIGLGVLASMFHVTLKIEMKKMNKLQNISEELQRNISLQLMSNMNISNKIRNLSTTLQTIATKLCRELYSKEQEHKCKPCPRRWIWHKDSCYFLSDDVQTWQESKMACAAQNASLLKINNKNALEFIKSQSRSYDYWLGLSPEEDSTRGMRVDNIINSSAWVIRNAPDLNNMYCGYINRLYVQYYHCTYKKRMICEKMANPVQLGSTYFREA [Q5QGZ9]
percentage of EdU-negative [1, 8]: 4.07 ± 0.067% | percentage of EdU-negative ([1]; protein concentration 0.225 µM): 4.99 ± 0.84% | percentage of EdU-negative [2, 8]: 25.2 ± 1.6% | percentage of EdU-negative ([2]; protein concentration 0.225 µM): 28.95 ± 0.13%

MKMMLVRRFRVLILMVFLVACALHIALDLLPRLERRGARPSGEPGCSCAQPAAEVAAPGWAQVRGRPGEPPAASSAAGDAGWPNKHTLRILQDFSSDPSSNLSSHSLEKLPPAAEPAERALRGRDPGALRPHDPAHRPLLRDPGPRRSESPPGPGGDASLLARLFEHPLYRVAVPPLTEEDVLFNVNSDTRLSPKAAENPDWPHAGAEGAEFLSPGEAAVDSYPNWLKFHIGINRYELYSRHNPAIEALLHDLSSQRITSVAMKSGGTQLKLIMTFQNYGQALFKPMKQTREQETPPDFFYFSDYERHNAEIAAFHLDRILDFRRVPPVAGRMVNMTKEIRDVTRDKKLWRTFFISPANNICFYGECSYYCSTEHALCGKPDQIEGSLAAFLPDLSLAKRKTWRNPWRRSYHKRKKAEWEVDPDYCEEVKQTPPYDSSHRILDVMDMTIFDFLMGNMDRHHYETFEKFGNETFIIHLDNGRGFGKYSHDELSILVPLQQCCRIRKSTYLRLQLLAKEEYKLSLLMAESLRGDQVAPVLYQPHLEALDRRLRVVLKAVRDCVERNGLHSVVDDDLDTEHRAASAR [Q8IXL6]
percentage of EdU-negative [1, 9]: 5.97 ± 0.7% | percentage of EdU-negative [1, 10]: 6.51 ± 0.12% | percentage of EdU-negative [2, 9]: 23.5 ± 2.4% | percentage of EdU-negative [2, 10]: 24.2 ± 0.32%

MPRRGYSKPGSWGSFWAMLTLVGLVTHAAQRADVGGEAAGTSINHSQAVLQRLQELLRQGNASDVVLRVQAAGTDEVRVFHAHRLLLGLHSELFLELLSNQSEAVLQEPQDCAAVFDKFIRYLYCGELTVLLTQAIPLHRLATKYGVSSLQRGVADYMRAHLAGGAGPAVGWYHYAVGTGDEALRESCLQFLAWNLSAVAASTEWGAVSPELLWQLLQRSDLVLQDELELFHALEAWLGRARPPPAVAERALRAIRYPMIPPAQLFQLQARSAALARHGPAVADLLLQAYQFHAASPLHYAKFFDVNGSAFLPRNYLAPAWGAPWVINNPARDDRSTSFQTQLGPSGHDAGRRVTWNVLFSPRWLPVSLRPVYADAAGTALPAARPEDGRPRLVVTPASSGGDAAGVSFQKTVLVGARQQGRLLVRHAYSFHQSSEEAGDFLAHADLQRRNSEYLVENALHLHLIVKPVYHTLIRTPK [A6NE02]
percentage of EdU-negative ([1]; protein concentration 0.006 µM): 5.11 ± 0.82% | percentage of EdU-negative ([1]; protein concentration 0.06 µM): 10 ± 0.96% | percentage of EdU-negative ([2]; protein concentration 0.006 µM): 26.7 ± 0.63% | percentage of EdU-negative ([2]; protein concentration 0.06 µM): 26.1 ± 1.3%

MAQLCGLRRSRAFLALLGSLLLSGVLAADRERSIHDFCLVSKVVGRCRASMPRWWYNVTDGSCQLFVYGGCDGNSNNYLTKEECLKKCATVTENATGDLATSRNAADSSVPSAPRRQDSEDHSSDMFNYEEYCTANAVTGPCRASFPRWYFDVERNSCNNFIYGGCRGNKNSYRSEEACMLRCFRQQENPPLPLGSKVVVLAGLFVMVLILFLGASMVYLIRVARRNQERALRTVWSSGDDKEQLVKNTYVL
percentage of EdU-negative [1, 8]: 4.91 ± 0.26% | percentage of EdU-negative ([1]; protein concentration 0.225 µM): 5.37 ± 0.98% | percentage of EdU-negative [2, 8]: 24.2 ± 2% | percentage of EdU-negative ([2]; protein concentration 0.225 µM): 25.4 ± 0.69%

MDLVLKRCLLHLAVIGALLAVGATKVPRNQDWLGVSRQLRTKAWNRQLYPEWTEAQRLDCWRGGQVSLKVSNDGPTLIGANASFSIALNFPGSQKVLPDGQVIWVNNTIINGSQVWGGQPVYPQETDDACIFPDGGPCPSGSWSQKRSFVYVWKTWGQYWQVLGGPVSGLSIGTGRAMLGTHTMEVTVYHRRGSRSYVPLAHSSSAFTITDQVPFSVSVSQLRALDGGNKHFLRNQPLTFALQLHDPSGYLAEADLSYTWDFGDSSGTLISRALVVTHTYLEPGPVTAQVVLQAAIPLTSCGSSPVPGTTDGHRPTAEAPNTTAGQVPTTEVVGTTPGQAPTAEPSGTTSVQVPTTEVISTAPVQMPTAESTGMTPEKVPVSEVMGTTLAEMSTPEATGMTPAEVSIVVLSGTTAAQVTTTEWVETTARELPIPEPEGPDASSIMSTESITGSLGPLLDGTATLRLVKRQVPLDCVLYRYGSFSVTLDIVQGIESAEILQAVPSGEGDAFELTVSCQGGLPKEACMEISSPGCQPPAQRLCQPVLPSPACQLVLHQILKGGSGTYCLNVSLADTNSLAVVSTQLIMPGQEAGLGQVPLIVGILLVLMAVVLASLIYRRRLMKQDFSVPQLPHSSSHWLRLPRIFCSCPIGENSPLLSGQQV
percentage of EdU-negative [1, 11]: 4.37 ± 0.18% | percentage of EdU-negative [1, 12]: 5.18 ± 0.52% | percentage of EdU-negative [2, 11]: 25.3 ± 1.8% | percentage of EdU-negative [2, 12]: 25.4 ± 2.4%

MLPLLLLPLLWGGSLQEKPVYELQVQKSVTVQEGLCVLVPCSFSYPWRSWYSSPPLYVYWFRDGEIPYYAEVVATNNPDRRVKPETQGRFRLLGDVQKKNCSLSIGDARMEDTGSYFFRVERGRDVKYSYQQNKLNLEVTALIEKPDIHFLEPLESGRPTRLSCSLPGSCEAGPPLTFSWTGNALSPLDPETTRSSELTLTPRPEDHGTNLTCQMKRQGAQVTTERTVQLNVSYAPQTITIFRNGIALEILQNTSYLPVLEGQALRLLCDAPSNPPAHLSWFQGSPALNATPISNTGILELRRVRSAEEGGFTCRAQHPLGFLQIFLNLSVYSLPQLLGPSCSWEAEGLHCRCSFRARPAPSLCWRLEEKPLEGNSSQGSFKVNSSSAGPWANSSLILHGGLSSDLKVSCKAWNIYGSQSGSVLLLQGRSNLGTGVVPAALGGAGVMALLCICLCLIFFLIVKARRKQAAGRPEKMDDEDPIMGTITSGSRKKPWPDSPGDQASPPGDAPPLEEQKELHYASLSFSEMKSREPKDQEAPSTTEYSEIKTSK
percentage of EdU-negative [1, 8]: 5.12 ± 0.15% | percentage of EdU-negative ([1]; protein concentration 0.225 µM): 5.64 ± 1% | percentage of EdU-negative [2, 8]: 25 ± 0.77% | percentage of EdU-negative ([2]; protein concentration 0.225 µM): 29.26 ± 0.077%

Reference: the supplement of paper PMC11316812
